Data: paper PMC8561398, “The Histidine Ammonia Lyase of Trypanosoma cruzi Is Involved in Acidocalcisome Alkalinization and Is Essential for Survival under Starvation Conditions” (mBio, 2021)

Substrate: N[C@@H](Cc1c[nH]cn1)C(=O)O
Test: purified protein
Type: biochemical, Trypanosoma cruzi
Details: 100 mM Tris-HCl pH 8.8, 0.1 mM MnCl2, 1.7 mM reduced glutathione, 30°C, L-histidine 0.2 to 5 mM, four catalytic sites considered

B1: 6×His-HAL (rHAL; histidine ammonia lyase) (Trypanosoma cruzi strain CL Brener) (protein)
chain: MRVILDGCSLTPDVLYALGYEKGATIEISDEAVARITAARAVIDKIVNDRQTVYGINTGFGKFESTIIPPHQLEELQLNLIRSHSACVGEPLTPERARMMLALRVNVLCKGHSGIRLETVQKYVKAFNAGVVPYIPEQGTVGASGDLGPLSHLALGMLGEGLLATLNNKKFRDAGSVLRELGVEPITLAAKEGLALINGTQFISALGAEAVVRARKIARLADVALAMSHEALRATNSTLNPDIHRVRPHKGQQLVAQRLRALLHSEEYPSMINESHVNCGRVQDAYSIRCAPQVHGISNEVIEWVYGILTTELNCATDNPLVFPDGVKKVVSGGNFHGEYPAKALDMLAIGVHELGNISERRIERLNNPTLSRLPAFLVKNGGLNSGFMIAHCTAAALVSENKVYCHPASADSISTSAAQEDHVSMGGFSARKAIKVVENVERIIAIELLGACQGIDLLRPLRTTEPMEKVWSLVRSVSPPWEEDRVINTDIDNVTKLLRSGAVWKTVKPYVPEEARFLGVLTVKKPFELKSKM
notes: four catalytic sites considered; Q4E133 used for alignment; locus tag from YC6
With B1 the kcat was 9.027 to 11.7 s⁻¹.
